Measured values taken from US7354734B2, “Fungal proteins and nucleic acids encoding same” (priority 2003, dated 2008).
Entries after “also recorded” stand apart in the source; their conditions may differ. Like-named read-outs stand apart in the source and are kept apart here.

Legend:
[1] = test system: T. rubrum secreted proteolytic activity; experiment: Inhibition of T. rubrum secreted proteolytic activity (resorufin-labeled casein); type: biochemical, Trichophyton rubrum; details: T. rubrum culture medium, resorufin-labeled casein as substrate
Experimental: The proteolytic activity was measured using resorufin-labeled casein in phosphate buffer (20 mM; pH 7.4). The reaction mixture contained 0.02% substrate in a total volume of 0.5 ml. After incubation at 37° C., the undigested substrate was precipitated by trichloroacetic add (4% final concentration) and separated from the supernatant by centrifugation. The absorbance at 574 nm of the supernatant was measured after alkalinization by adding 500 μl Tris buffer (500 mM; pH 9.4). For practical purposes, one unit (U) of proteolytic activity was defined as that producing an absorbance of 0.001 per min.
T. rubrum was grown at 30° C. in a medium containing 0.2% soy protein as a sole carbon and nitrogen source. After 14 days of growth, a concomitant clarification of the culture medium was noted and a substantial proteolytic activity (400 U ml^−1) detected using resorufin-labeled casein as substrate. This proteolytic activity was 15% and 85% inhibited by PMSF and ortho-phenanthroline, respectively, attesting that serine and metalloproteases were secreted by T. rubrum. […] In addition, a high activity on substrates such as Leu-AMC and Leu-pNA was detected in the T. rubrum culture supernatant.

fuLAP2 = type: biochemical, Aspergillus fumigatus; details: for effect of inhibitor on fuLAP2 activity: Leu-AMC 5 mM
fuLAP1 = fuLAP1 (Aspergillus fumigatus, UniProt Q5VJG6); experiment: biochemical; type: biochemical; details: for effect of inhibitor on fuLAP1 activity: Leu-AMC 5 mM
Chain of fuLAP1 (Q5VJG6 16-388): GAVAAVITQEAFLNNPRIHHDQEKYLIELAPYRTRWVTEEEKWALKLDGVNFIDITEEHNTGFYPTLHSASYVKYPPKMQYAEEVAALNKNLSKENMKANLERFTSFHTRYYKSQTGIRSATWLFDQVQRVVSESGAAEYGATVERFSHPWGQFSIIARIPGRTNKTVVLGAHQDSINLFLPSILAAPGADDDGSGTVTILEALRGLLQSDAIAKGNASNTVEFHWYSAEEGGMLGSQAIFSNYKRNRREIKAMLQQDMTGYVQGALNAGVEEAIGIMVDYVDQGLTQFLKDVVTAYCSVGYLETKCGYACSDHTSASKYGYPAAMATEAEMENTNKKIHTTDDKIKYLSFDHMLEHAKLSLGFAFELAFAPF

ruLAP2 = ruLAP2 (Trichophyton rubrum, UniProt Q5QHG6); type: biochemical; details: for effect of inhibitor on ruLAP2 activity: Leu-AMC 5 mM
[2] = biological target: T1, pkLAP (microsomal LAP from porcine kidney) (Sus scrofa, UniProt P15145); experiment: Effect of inhibitors and metallic cations on LAP activity (Leu-AMC); type: biochemical; details: for effect of inhibitor on pkLAP activity: Leu-AMC 5 mM
T1 construct: purchased Sigma; host or cells: porcine kidney
T1 sequence (P15145 1-963): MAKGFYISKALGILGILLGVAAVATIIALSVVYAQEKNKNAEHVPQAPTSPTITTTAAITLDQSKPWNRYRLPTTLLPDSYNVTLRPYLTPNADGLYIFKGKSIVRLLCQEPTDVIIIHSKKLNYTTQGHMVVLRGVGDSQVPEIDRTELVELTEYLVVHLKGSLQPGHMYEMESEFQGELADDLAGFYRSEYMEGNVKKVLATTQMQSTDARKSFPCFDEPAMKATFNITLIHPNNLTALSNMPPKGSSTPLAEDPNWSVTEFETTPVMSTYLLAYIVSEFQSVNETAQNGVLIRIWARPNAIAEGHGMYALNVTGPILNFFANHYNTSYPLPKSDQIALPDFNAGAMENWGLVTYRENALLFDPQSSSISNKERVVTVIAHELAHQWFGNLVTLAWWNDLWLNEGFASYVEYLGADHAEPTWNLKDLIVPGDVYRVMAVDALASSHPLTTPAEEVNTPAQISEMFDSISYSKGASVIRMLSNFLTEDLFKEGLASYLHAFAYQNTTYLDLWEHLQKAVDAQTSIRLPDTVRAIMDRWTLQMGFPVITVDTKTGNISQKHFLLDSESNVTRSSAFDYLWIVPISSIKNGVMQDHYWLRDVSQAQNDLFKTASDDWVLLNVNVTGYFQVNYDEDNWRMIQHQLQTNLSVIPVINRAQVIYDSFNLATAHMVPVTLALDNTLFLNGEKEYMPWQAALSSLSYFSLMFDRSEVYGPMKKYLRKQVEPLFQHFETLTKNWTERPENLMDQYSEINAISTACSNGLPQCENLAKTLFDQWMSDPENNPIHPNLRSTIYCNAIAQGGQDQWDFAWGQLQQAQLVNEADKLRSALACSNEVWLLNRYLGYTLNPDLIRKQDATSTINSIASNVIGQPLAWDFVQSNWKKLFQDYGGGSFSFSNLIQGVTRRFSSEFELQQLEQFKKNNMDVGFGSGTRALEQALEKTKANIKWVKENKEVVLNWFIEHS

ruLAP1 = ruLAP1 (Trichophyton rubrum, UniProt Q5QHG5); type: biochemical
Chain of ruLAP1 (Q5QHG5 21-373): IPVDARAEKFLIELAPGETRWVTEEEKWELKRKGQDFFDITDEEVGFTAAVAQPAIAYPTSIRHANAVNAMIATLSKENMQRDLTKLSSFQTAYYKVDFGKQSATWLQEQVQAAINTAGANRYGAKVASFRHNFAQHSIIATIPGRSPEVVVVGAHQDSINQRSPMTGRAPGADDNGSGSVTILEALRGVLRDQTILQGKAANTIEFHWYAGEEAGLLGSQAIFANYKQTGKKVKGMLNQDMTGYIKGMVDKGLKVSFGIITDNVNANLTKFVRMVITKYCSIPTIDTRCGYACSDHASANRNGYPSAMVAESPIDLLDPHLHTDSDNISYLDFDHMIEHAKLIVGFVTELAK

[3] = test system: gliadin 14mer PQPQLPYPQPQLPY (fragment 82-95 of α/β gliadin AIV); type: biochemical, wheat
[4] = type: biochemical; details: substrate Lys(Abz)Pro-PropNA 5 mM, 37° C., 60 min
[5] = test system: gliadin 33mer (fragment 57-89 of gliadin MM1); experiment: Digestion of gliadin 33mer (RP-HPLC, ESI-MS); type: biochemical, wheat; details: 37° C.
Ala-proNPY = experiment: Digestion of Ala-proNPY; type: biochemical; details: conditions as for Gly-Ser-proNPY
Experimental: The digested material was isolated by RP-HPLC and characterized by ESI-MS. […] The same result is obtained at an 1:[…] ratio. Digestion halts when the enzyme reaches a Xaa-Pro-motif, which in case of proNPY is Tyr-Pro. Conditions of incubation were the same as for Gly-Ser-proNPY.

[6] = type: biochemical
Gly-Ser-proNPY = experiment: Digestion of Gly-Ser-proNPY; type: biochemical; details: overnight 37° C., 1 mM CoCl2, E/S 1:20
Description: The digested material was isolated by RP-HPLC and characterized by ESI-MS. […] The same result is obtained at an 1:[…] ratio. Digestion halts when the enzyme reaches a Xaa-Pro-motif, which in case of proNPY is Tyr-Pro.

[7] = inhibitor 40 μM, Leu-MCA substrate, 15 min pre-incubation

O=S(=O)(F)Cc1ccccc1 [PMSF]
inhibition of proteolytic activity [1]: 15% | effect of inhibitor on fuLAP2 activity (fuLAP2): no clear inhibitory effects | fuLAP2 activity as percentage of control reaction without inhibitor (fuLAP2; [7]): 84% | effect of inhibitor on fuLAP1 activity (fuLAP1): no clear inhibitory effects | fuLAP1 activity as percentage of control reaction without inhibitor (fuLAP1; [7]): 156% | effect of inhibitor on ruLAP2 activity (ruLAP2): no clear inhibitory effects | ruLAP2 activity as percentage of control reaction without inhibitor (ruLAP2; [7]): 79% | effect of inhibitor on pkLAP activity [2]: no clear inhibitory effects | pkLAP activity as percentage of control reaction without inhibitor [2, 7]: 58% | effect of inhibitor on ruLAP1 activity (ruLAP1): no clear inhibitory effects | ruLAP1 activity as percentage of control reaction without inhibitor (ruLAP1; 40 µM): 78%

c1cnc2c(c1)ccc1cccnc12 [ortho-phenantroline, ortho-phenanthroline]
inhibition of proteolytic activity [1]: 85% | effect of inhibitor on fuLAP2 activity (fuLAP2): totally inhibited | effect of inhibitor on fuLAP1 activity (fuLAP1): totally inhibited | effect of inhibitor on ruLAP2 activity (ruLAP2): totally inhibited | effect of inhibitor on pkLAP activity [2]: totally inhibited | effect of inhibitor on ruLAP1 activity (ruLAP1; Leu-AMC 5 mM): totally inhibited

B1: ruLAP2: T. rubrum leucine aminopeptidase, 495 amino acid residues (SEQ ID NO: 3) (protein, listed as Trichophyton rubrum)
chain: MKSQLLSLAVAVTTISQGVVGQEPFGWPFKPMVTQDDLQNKIKLKDIMAGVEKLQSFSDAHPEKNRVFGGNGHKDTVEWIYNEIKATGYYDVKKQEQVHLWSHAEAALNANGKDLKASAMSYSPPASKIMAELVVAKNNGCNATDYPANTQGKIVLVERGVCSFGEKSAQAGDAKAAGAIVYNNVPGSLAGTLGGLDKRHVPTAGLSQEDGKNLATLVASGKIDVTMNVISLFENRTTWNVIAETKGGDHNNVIMLGAHSDSVDAGPGINDNGSGSIGIMTVAKALTNFKLNNAVRFAWWTAEEFGLLGSTFYVNSLDDRELHKVKLYLNFDMIGSPNFANQIYDGDGSAYNMTGPAGSAEIEYLFEKFFDDQGIPHQPTAFTGRSDYSAFIKRNVPAGGLFTGAEVVKTPEQVKLFGGEAGVAYDKNYHRKGDTVANINKGAIFLNTRAIAYAIAEYARSLKGFPTRPKTGKRDVNPQYSKMPGGGCGHHTVFM
digestion of gliadin 14mer, supplemented with ruDPPIV [3]: complete breakdown | digestion of gliadin 14mer, enzyme alone ([3]; 4 h, 37° C.): not digested | hydrolytic activity toward Lys(Abz)Pro-PropNA in comparison to Leu-MCA used as a standard [4]: 0.0% | digestion of gliadin 33mer, mixed with ruDPPIV ([5]; enzyme plus ruDPPIV (DPPIV)): totally digested; also recorded: same HPLC pattern | degradation of gliadin 33mer, enzyme alone ([5]; within 4 h): less than 50% | removal of N-terminal alanine from Ala-proNPY (Ala-proNPY): almost totally removed | hydrolytic activity toward Asp-AMC ([6]; compared to Leu-AMC): efficiently cleaved; also recorded: efficiently hydrolyze | hydrolytic activity toward Glu-AMC ([6]; compared to Leu-AMC): efficiently cleaved; also recorded: efficiently hydrolyze | hydrolytic activity toward Pro-AMC ([6]; compared to Leu-AMC): more efficiently cleaved | hydrolytic activity toward Ser-AMC ([6]; compared to Leu-AMC): more efficiently cleaved | hydrolytic activity toward Ala-AMC in comparison to Leu-MCA used as a standard ([6]; substrate Ala-AMC 5 mM, 37° C., 60 min): 33.3% | hydrolytic activity toward Arg-AMC in comparison to Leu-MCA used as a standard ([6]; substrate Arg-AMC 5 mM, 37° C., 60 min): 1.9% | hydrolytic activity toward Asn-AMC in comparison to Leu-MCA used as a standard ([6]; substrate Asn-AMC 5 mM, 37° C., 60 min): 114.6% | hydrolytic activity toward Asp-AMC in comparison to Leu-MCA used as a standard ([6]; substrate Asp-AMC 5 mM, 37° C., 60 min): 3.8% | hydrolytic activity toward Cys-AMC in comparison to Leu-MCA used as a standard ([6]; substrate Cys-AMC 5 mM, 37° C., 60 min): 14.9% | hydrolytic activity toward Gln-AMC in comparison to Leu-MCA used as a standard ([6]; substrate Gln-AMC 5 mM, 37° C., 60 min): 49.9% | hydrolytic activity toward Glu-AMC in comparison to Leu-MCA used as a standard ([6]; substrate Glu-AMC 5 mM, 37° C., 60 min): 3.7% | hydrolytic activity toward Gly-AMC in comparison to Leu-MCA used as a standard ([6]; substrate Gly-AMC 5 mM, 37° C., 60 min): 3.3% | hydrolytic activity toward Gly-Pro-AMC in comparison to Leu-MCA used as a standard ([6]; substrate Gly-Pro-AMC 5 mM, 37° C., 60 min): 7.2% | hydrolytic activity toward His-AMC in comparison to Leu-MCA used as a standard ([6]; substrate His-AMC 5 mM, 37° C., 60 min): 0.6% | hydrolytic activity toward Hyp-AMC in comparison to Leu-MCA used as a standard ([6]; substrate Hyp-AMC 5 mM, 37° C., 60 min): 14.2% | hydrolytic activity toward Ile-AMC in comparison to Leu-MCA used as a standard ([6]; substrate Ile-AMC 5 mM, 37° C., 60 min): 6.4% | hydrolysis of Leu-AMC ([6]; substrate Leu-AMC): efficiently hydrolyzed; also recorded: common preference | hydrolytic activity toward Leu-AMC in comparison to Leu-MCA used as a standard ([6]; substrate Leu-AMC 5 mM, 37° C., 60 min): 100.0% | hydrolytic activity toward Lys-AMC in comparison to Leu-MCA used as a standard ([6]; substrate Lys-AMC 5 mM, 37° C., 60 min): 4.6% | hydrolytic activity toward Met-AMC in comparison to Leu-MCA used as a standard ([6]; substrate Met-AMC 5 mM, 37° C., 60 min): 119.7% | hydrolytic activity toward Phe-AMC in comparison to Leu-MCA used as a standard ([6]; substrate Phe-AMC 5 mM, 37° C., 60 min): 17.1% | hydrolytic activity toward Pro-AMC in comparison to Leu-MCA used as a standard ([6]; substrate Pro-AMC 5 mM, 37° C., 60 min): 21.4% | hydrolytic activity toward Pyr-AMC in comparison to Leu-MCA used as a standard ([6]; substrate Pyr-AMC 5 mM, 37° C., 60 min): 0.0% | hydrolytic activity toward Ser-AMC in comparison to Leu-MCA used as a standard ([6]; substrate Ser-AMC 5 mM, 37° C., 60 min): 26.1% | hydrolytic activity toward Thr-AMC in comparison to Leu-MCA used as a standard ([6]; substrate Thr-AMC 5 mM, 37° C., 60 min): 0.9% | hydrolytic activity toward Val-AMC in comparison to Leu-MCA used as a standard ([6]; substrate Val-AMC 5 mM, 37° C., 60 min): 4.8% | N-terminal cleavage of Gly-Ser-proNPY (Gly-Ser-proNPY): cleavage of the two N-terminal residues Gly-Ser | digestion of denatured casein (denatured casein): sequentially digest
